Data from article PMC6765112, “Specificity of MYB interactions relies on motifs in ordered and disordered contexts” (Nucleic Acids Research, 2019).
Like-named read-outs stand apart in the source and are kept apart here. Ends that are not written are not given here. * marks the point of attachment. Biotin = O=C1N[C@H]2[C@H](CS[C@H]2CCCCC(=O)*)N1

T1: MYC4 N-terminal domain (L55-N253) (Arabidopsis thaliana, UniProt O49687 55-253)
T1 chain: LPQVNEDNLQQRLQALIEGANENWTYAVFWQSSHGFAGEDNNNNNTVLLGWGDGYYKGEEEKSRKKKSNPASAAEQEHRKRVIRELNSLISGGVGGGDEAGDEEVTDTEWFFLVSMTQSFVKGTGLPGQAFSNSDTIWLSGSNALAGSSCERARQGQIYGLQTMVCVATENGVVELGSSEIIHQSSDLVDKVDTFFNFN

T2: L190V-MIM peptide (F180-G201 of MYB29, L190V) (Arabidopsis thaliana, UniProt Q9FLR1 180-201, L190V, biotin on the N-terminus)
T2 construct: MYB29, Arabidopsis thaliana, 22 residues F180-G201; source: synthetic peptide (TAG Copenhagen A/S)
T2 peptide (looked up): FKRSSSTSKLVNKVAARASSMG

B1: non-MYB region of MYB75: non-MYB region of MYB75 (residues K110-D248) (protein)
chain: KKHEPCCKIKMKKRDITPIPTTPALKNNVYKPRPRSFTVNNDCNHLNAPPKVDVNPPCLGLNINNVCDNSIIYNKDKKKDQLVNNLIDGDNMWLEKFLEESQEVDILVPEATTTEKGDTLAFDVDQLWSLFDGETVKFD
modifications: left off: NubG and FRB (from the vector pFRB), end not stated, kept
B2: L190V-MIM peptide (F180-G201 of MYB29, L190V) (peptide)
peptide: Biotin-FKRSSSTSKLVNKVAARASSMG
B3: MYC4 N-terminal domain (L55-N253) (domain or fragment, Arabidopsis thaliana, UniProt O49687 55-253, looked up)
chain: LPQVNEDNLQQRLQALIEGANENWTYAVFWQSSHGFAGEDNNNNNTVLLGWGDGYYKGEEEKSRKKKSNPASAAEQEHRKRVIRELNSLISGGVGGGDEAGDEEVTDTEWFFLVSMTQSFVKGTGLPGQAFSNSDTIWLSGSNALAGSSCERARQGQIYGLQTMVCVATENGVVELGSSEIIHQSSDLVDKVDTFFNFN
notes: MYC4, Arabidopsis thaliana, N-terminal domain with the JID, residues L55-N253 (AA55-253); recombinant protein of 22.7 kDa; expressed from pET52u; source: E. coli BL21(DE3), purified (HisTrap HP IMAC, dialysed to PBS pH 7.4 with 1 mM DTT); not shown: 6xHis, C-terminal, kept
B4: WT-MIM peptide (F180-G201 of MYB29) (peptide, UniProt Q9FLR1 180-201, looked up)
peptide: Biotin-FKRSSSTSKLLNKVAARASSMG
notes: source: synthetic peptide (TAG Copenhagen A/S)
B5: MYB75 DBD: fragment comprising the MYB DBD (residues M1-P114) (protein, UniProt Q9FE25 1-114, looked up, fragment)
chain: MEGSSKGLRKGAWTTEEDSLLRQCINKYGEGKWHQVPVRAGLNRCRKSCRLRWLNYLKPSIKRGKLSSDEVDLLLRLHRLLGNRWSLIAGRLPGRTANDVKNYWNTHLSKKHEP

Columns and labels:
GL3 [1] = assay: Split-ubiquitin assay, GL3 as bait; format: cell-based, Arabidopsis thaliana; conditions: yeast, SD-AHLW growth
Procedure: The rapamycin-compatible yeast strain NMY51 TOR1-1 Δfpr1 ([35]) was transformed according to DUALhunter™ kit instructions (Dualsystems biotech). Briefly, overnight 2×YPAD cultures were diluted to OD600 = 0.2, and incubated at 30°C, 150 RPM for 4–6 h in 2×YPAD, before harvesting the cells by centrifugation at 700 g for 5 min. The cells were washed with H2O, then 0.1 M LiOAc, before resuspending in 0.1 M LiOAc with 15% glycerol. The competent cells were then aliquoted and stored at −80°C until transformation. For double transformation with bait and prey plasmids, competent cells were thawed on ice, and mixed with transformation mix (240 μl 50% PEG-3350, 35 μl 1 M LiOAc and 25 μl 2 mg/ml ssDNA per transformation) and 200 ng of each plasmid, before being exposed to a 42°C heat shock in a water bath for 45 min. The cells were then chilled on ice for a few minutes, sedimented by centrifugation (3000 g, 1 min), resuspended in sterile H2O, plated on SD-LW plates and grown at 30°C for 2–3 days.
For drop tests, cells from three individual colonies of each bait/prey combination were grown overnight in liquid SD-LW media. Next day, culture densities were normalized to OD600 = 0.05, dilution series (OD600 = 0.05, OD600 = 0.005, OD600 = 0.0005 and OD600 = 0.00005) were spotted on square plates (SD-LW, SD-AHLW and SD-AHLW+Rapa) and grown for 2 days at 30°C before taking pictures.
To identify interaction sites mediating specific MYB–MYC complex formation, we selected two TFs from each family. These were MYB28 and MYB29 from MYB subgroup 12, and two of their partner bHLH TFs, MYC3 and MYC4. To define the region mediating the interactions we applied a chemically inducible dimerization split-ubiquitin system ([35]). […] This is used as an in-built positive control for correct expression and functionality of the prey fusion protein and thereby reduces the incidence of false negatives.

GL3 [2] = conditions: ref [32]; cited from earlier work
Text: To identify interaction sites mediating specific MYB–MYC complex formation, we selected two TFs from each family. These were MYB28 and MYB29 from MYB subgroup 12, and two of their partner bHLH TFs, MYC3 and MYC4. To define the region mediating the interactions we applied a chemically inducible dimerization split-ubiquitin system ([35]). […] As controls, we included the interaction between GL3 and MYB75, where a fragment c ...

[3] = biological target: T1, MYC4 N-terminal domain (L55-N253); assay: BLI
[4] = biological target: T2, L190V-MIM peptide (F180-G201 of MYB29, …); assay: BLI; biotinylated peptide (1 μM) immobilised on streptavidin biosensors; MYC4Nt 130 to 0.1 μM; PBS pH 7.4, 1 mM DTT, 0.05% bovine serum albumin; BLItz; equilibrium responses fitted to a Hill equation; conditions: both partners purified
[5] = biological target: B3; assay: as above; conditions: both partners purified

Molecule | interaction with GL3 (in words) (GL3 [1]) | interaction with GL3 (in words) (GL3 [2]) | Kd [3] [nM] | further results
B1 | does not | unable to interact |  | 
B2 |  |  | 33000 | 
B3 |  |  |  | fold weaker affinity than the WT-MIM peptide [4]: ~10 fold
B4 |  |  | 1900 | Kd [5]: 2700 ± 800 nM
B5 | results in growth on SD-AHLW plates | sufficient for this interaction |  | 
